± gives the uncertainty stated by the source.
B1: Telomeric repeat-binding factor 2, residues 489 to 542; numbered along this chain, Q15554 (parent)
chain: KQKWTVEESEWVKAGVQKYGEGNWAAISKNYPFVNRTAVMIKDRWRTMKRLGMN

Variants of: B1
Assay: abundance fitness (aPCA) (normalised: wild type 0, dead -1); higher = more abundant; growth selection in yeast, the domain comes from the species named
Details: Homo sapiens

Abundance fitness, by site and new letter:
E10: W -0.414 ± 0.11 | T -0.102 ± 0.097
W11: S -0.321 ± 0.06 | G -0.193 ± 0.057 | F -0.394 ± 0.13 | N -0.391 ± 0.2 | R -0.553 ± 0.083 | Y -0.191 ± 0.071 | I -0.241 ± 0.18 | M -0.111 ± 0.11 | T -0.12 ± 0.11 | D -0.183 ± 0.13 | A -0.352 ± 0.095 | H -0.294 ± 0.16 | P -0.327 ± 0.19 | V -0.47 ± 0.048
A14: R -0.002 ± 0.09 | L -0.051 ± 0.061 | Y -0.217 ± 0.29 | F -0.4 ± 0.21 | P -0.306 ± 0.24 | S 0.084 ± 0.086 | Q -0.189 ± 0.17 | D -0.041 ± 0.087 | G -0.236 ± 0.053 | E -0.116 ± 0.14 | H -0.209 ± 0.24 | W -0.382 ± 0.18 | N -0.276 ± 0.07
W4: D -0.171 ± 0.33 | Q -0.266 ± 0.17 | G -0.637 ± 0.15 | H -0.391 ± 0.16 | C -0.599 ± 0.23 | S -0.248 ± 0.098 | L -0.41 ± 0.09 | P -0.216 ± 0.28 | R -0.747 ± 0.19 | I -0.131 ± 0.1 | E -0.126 ± 0.22 | M -0.27 ± 0.21 | K -0.426 ± 0.38 | T -0.258 ± 0.3 | V -0.61 ± 0.23 | A -0.804 ± 0.19 | Y -0.325 ± 0.059 | F -0.023 ± 0.12
V16: M -0.664 ± 0.05 | W -0.765 ± 0.094 | I -0.446 ± 0.2 | G -0.504 ± 0.062 | R -0.323 ± 0.074 | K -0.798 ± 0.43 | L -0.696 ± 0.19 | A -0.505 ± 0.1 | Y -0.885 ± 0.25 | D -0.459 ± 0.091 | E -0.62 ± 0.092 | H -0.071 ± 0.28 | F -0.936 ± 0.44 | Q -0.398 ± 0.13 | S -0.563 ± 0.085 | T -0.157 ± 0.17
G22: F -0.338 ± 0.19 | Y -0.204 ± 0.068 | E -0.461 ± 0.17 | P -0.846 ± 0.25 | W -0.695 ± 0.17 | T -0.467 ± 0.35 | A -0.286 ± 0.1 | R -0.261 ± 0.1 | I -0.595 ± 0.29 | V -0.489 ± 0.07 | M -0.788 ± 0.15 | K -0.418 ± 0.16 | Q -0.427 ± 0.09 | D -0.051 ± 0.072 | L -0.761 ± 0.14
N23: E -0.801 ± 0.36 | M -0.385 ± 0.39 | K 0.133 ± 0.11 | I -0.354 ± 0.23 | G -0.61 ± 0.14 | A -0.298 ± 0.11 | P -0.773 ± 0.33 | D -0.527 ± 0.26 | L -0.56 ± 0.14 | C -0.417 ± 0.36 | Q 0.057 ± 0.41 | T -0.478 ± 0.18 | S -0.238 ± 0.086
K18: L -0.342 ± 0.07 | A -0.368 ± 0.13 | G -0.616 ± 0.14 | F -0.477 ± 0.46 | E -0.233 ± 0.11 | S -0.736 ± 0.27 | R 0.076 ± 0.067 | Q -0.07 ± 0.11 | W -0.956 ± 0.21 | N -0.435 ± 0.18 | C -0.403 ± 0.34 | M -0.254 ± 0.12 | P -0.686 ± 0.11 | T -0.035 ± 0.12
K3: M 0.339 ± 0.11 | V -0.205 ± 0.094 | E -0.175 ± 0.17 | I -0.278 ± 0.33 | C -0.394 ± 0.14 | A -0.098 ± 0.044 | N -0.499 ± 0.45 | H -0.519 ± 0.2 | G -0.268 ± 0.056 | P -0.01 ± 0.058 | Q -0.245 ± 0.16 | T -0.052 ± 0.048 | W -0.33 ± 0.093 | F -0.258 ± 0.26
Q17: M -0.531 ± 0.21 | K -0.143 ± 0.11 | R -0.2 ± 0.082 | D -0.273 ± 0.16 | W -0.376 ± 0.1 | V -0.244 ± 0.085 | G -0.108 ± 0.074 | S -0.087 ± 0.079 | N -0.295 ± 0.42 | P -0.63 ± 0.26 | E -0.441 ± 0.067 | A -0.031 ± 0.088 | I -0.066 ± 0.15 | Y -0.136 ± 0.13 | F -0.469 ± 0.14 | T 0.003 ± 0.1 | C 0.016 ± 0.12 | L -0.014 ± 0.053 | H -0.328 ± 0.29
V6: A 0.291 ± 0.085 | M -0.768 ± 0.29 | N -0.433 ± 0.23 | K 0.171 ± 0.048 | R 0.03 ± 0.054 | F 0.031 ± 0.15 | Y 0.192 ± 0.082 | I 0.005 ± 0.046 | W -0.063 ± 0.076 | T -0.115 ± 0.16 | C 0.07 ± 0.11 | H 0.298 ± 0.11 | S -0.024 ± 0.089 | D 0.059 ± 0.12 | E -0.007 ± 0.094 | G -0.253 ± 0.061
G15: M -0.934 ± 0.38 | L -0.503 ± 0.082 | C -0.652 ± 0.17 | K -0.657 ± 0.23 | A -0.761 ± 0.053 | V -0.587 ± 0.091 | D -0.772 ± 0.3 | H -0.946 ± 0.42 | N -0.485 ± 0.1 | E -0.758 ± 0.21 | F -0.888 ± 0.34 | I 0.246 ± 0.38 | W -0.284 ± 0.14

From the Human Domainome abundance scans (Beltran et al. 2025)
